Measurements from publication PMC6019379, “RecA-like domain 2 of DNA-dependent ATPase A domain, a SWI2/SNF2 protein, mediates conformational integrity and ATP hydrolysis” (Bioscience Reports, 2018).
Where a chain is given by its changes, count along the chain named.

Assays:
Assay in all cases: intrinsic tryptophan fluorescence titration; no ATP; Fluorescence titration (ex 295 nm, em 340 nm), one-site saturation fit; buffer, salt, pH and temperature not given in the material. Wild-type ADAAD Kd values are cited from ref 24 and not listed
Details in all cases: protein: recombinant; tags: His (Ni-NTA, pET-14b); hairpin
ADAAD H594A = target: T1, ADAAD H594A (Bos taurus (bovine), UniProt Q9TTA5 221-940, H814A)
T1 sequence: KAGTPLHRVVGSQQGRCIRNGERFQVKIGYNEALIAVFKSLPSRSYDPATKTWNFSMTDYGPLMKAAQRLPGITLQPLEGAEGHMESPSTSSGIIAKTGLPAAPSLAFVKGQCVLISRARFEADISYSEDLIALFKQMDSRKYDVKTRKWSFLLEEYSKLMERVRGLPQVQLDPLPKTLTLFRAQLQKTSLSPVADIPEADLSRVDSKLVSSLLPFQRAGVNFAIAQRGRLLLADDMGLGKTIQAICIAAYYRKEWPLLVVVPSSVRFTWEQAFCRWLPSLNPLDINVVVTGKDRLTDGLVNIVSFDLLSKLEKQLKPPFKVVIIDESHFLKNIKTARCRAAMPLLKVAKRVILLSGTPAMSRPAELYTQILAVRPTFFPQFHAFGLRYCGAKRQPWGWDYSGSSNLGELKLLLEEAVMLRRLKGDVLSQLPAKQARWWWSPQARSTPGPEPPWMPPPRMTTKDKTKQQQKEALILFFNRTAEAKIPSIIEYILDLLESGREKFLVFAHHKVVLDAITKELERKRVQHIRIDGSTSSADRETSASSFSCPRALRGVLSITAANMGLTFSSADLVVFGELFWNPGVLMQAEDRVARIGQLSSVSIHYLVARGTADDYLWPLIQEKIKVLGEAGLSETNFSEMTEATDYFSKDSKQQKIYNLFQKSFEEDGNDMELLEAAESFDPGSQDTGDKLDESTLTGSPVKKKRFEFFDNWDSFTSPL

ADAAD T560A = target: T2, ADAAD T560A (Bos taurus (bovine), UniProt Q9TTA5 221-940, T780A)
T2 sequence: T1 sequence with T560A, A594H

ADAAD F507W = target: T3, ADAAD F507W (Bos taurus (bovine), UniProt Q9TTA5 221-940, F727W)
T3 sequence: T1 sequence with F507W, A594H

B1: slDNA (stem-loop DNA) (structured_DNA)
DNA: GCGCAATTGCGCTCGACGATTTTTTAGCGCAATTGCGC
Kd (ADAAD H594A): 10.9 ± 2.6 nM | Kd (ADAAD T560A): 6.8 ± 0.6 nM | Kd (ADAAD F507W): 44.8 ± 9 nM
